Data from patent publication US20240317885A1 (published 2024).

T1: Tax interacting protein-1 (TIP1), recombinant / purified protein (UniProt O14907 1-124)
T1 chain: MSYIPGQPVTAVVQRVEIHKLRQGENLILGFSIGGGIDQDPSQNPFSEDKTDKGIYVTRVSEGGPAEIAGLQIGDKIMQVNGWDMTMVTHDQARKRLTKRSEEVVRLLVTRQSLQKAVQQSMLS


How the values were obtained:
[1] = molecular target: T1, Tax interacting protein-1 (TIP1), …; test: ELISA
[2] = molecular target: T1, Tax interacting protein-1 (TIP1), …; test: Biacore
[3] = molecular target: T1, Tax interacting protein-1 (TIP1), …; test: ELISA
[4] = molecular target: T1, Tax interacting protein-1 (TIP1), …; test: Biacore
v127 = test: Biacore
v144 = test: Biacore

EC50 [1] [nM]	Kd [2] [nM]	Kd [3] [nM]	Kd [4] [nM]	Kd (v127) [nM]	Kd (v144) [nM]	Binder
0.164	0.107	0.124	0.107			human IgG1 v111 (antibody, V domains shown) VH: QMQLVQSGAEVKKPGESLKISCKGSGYSFTSNWIGWVRQMPGKGLEWMGIIYPGDSDTRYSPSFQGQVTISADKSISTAYLQWSSLKASDTAMYYCARQQGHDAFDIWGQGTTVTVSS VL: SYELTQPPSVSVSPGQTARITCSGDALPKRYAYWYRQKPGQAPVLVIQKDTERPSGIPERFSGSISGTTVTLTISGVQAEDEADYYCQSTDSSASYAVFGGGTKLTVL
				0.13	0.241	TIP1 (other) MSYIPGQPVTAVVQRVEIHKLRQGENLILGFSIGGGIDQDPSQNPFSEDKTDKGIYVTRVSEGGPAEIAGLQIGDKIMQVNGWDMTMVTHDQARKRLTKRSEEVVRLLVTRQSLQKAVQQSMLS
